Here are results for one molecule from paper PMC5077683.

The target in experiment [1] is glutathione S-transferase (GST). Briefly: ITC. A general note: In ITC the heat of successive injections is recorded.
Experiment [2] shares this target. Briefly: other fluorescence titration.

Where no end group is shown, it is not given here. The star is where a group is joined. Prodan = Prodan fluorogenic core conjugated to Cys (C*)

A word on the Kd: it is the concentration at which binding is half-saturated. A higher Kd goes with lower affinity. NTVSC(Prodan)HGF [Prodan-evolver NTVSC*HGF (1)]: the Kd in experiment [1] came to 2.4 µM; in experiment [2] it was 5.2 µM.
